The supplement of paper PMC5998384

Key:
HeLa Kyoto [1] = experiment: thermal stability score vs G1/S (z-score of summed log2 fold changes over temperatures); higher = more thermally stable than in G1/S
HeLa Kyoto [2] = experiment: solubility change mitosis vs G1/S (difference of NP-40 vs SDS log2 ratios) (log2 ratio difference); higher = more soluble in mitosis
HeLa Kyoto [3] = experiment: melting temperature (median over replicates), in situ; higher = more thermally stable
HeLa Kyoto [4] = experiment: solubility in G1/S (NP-40 vs SDS abundance) (log2 ratio); higher = more soluble; settings: cell cycle stage: G1/S
[5] = cell cycle stage: early G1 (4.5 h after nocodazole release)
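Wherever melting temperature (median over replicates), in situ is given: HeLa Kyoto cells synchronized by double thymidine or nocodazole block, proteins quantified by TMT10plex mass spectrometry, three independent biological replicates.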
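Wherever solubility change mitosis vs G1/S (difference of NP-40 vs SDS log2 ratios) is given: synchronized HeLa Kyoto cells (double thymidine block for G1/S, nocodazole release for mitosis), protein amounts in NP-40 versus SDS lysates quantified by mass spectrometry, three biological replicates.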
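Wherever solubility in G1/S (NP-40 vs SDS abundance) is given: HeLa Kyoto cells arrested at G1/S by double thymidine block, proteins quantified by TMT10plex mass spectrometry in mild NP-40 versus SDS extracts, three biological replicates.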
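Wherever thermal stability score vs G1/S (z-score of summed log2 fold changes over temperatures) is given: synchronized HeLa Kyoto cells, proteins quantified by TMT10plex mass spectrometry, three biological replicates, mitosis taken 0.5 h after nocodazole release, G1/S directly after double thymidine block.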

| Sequence | thermal stability score (HeLa Kyoto [1]; [5]) | thermal stability score (HeLa Kyoto [1]; cell cycle stage: mitosis) | solubility change mitosis (log2) (HeLa Kyoto [2]) | melting temperature (HeLa Kyoto [3]; cell cycle stage: G1/S) | melting temperature (HeLa Kyoto [3]; cell cycle stage: mitosis) | solubility in G1/S (log2) (HeLa Kyoto [4]) |
| --- | --- | --- | --- | --- | --- | --- |
| MEVSGPEDDPFLSQLHQVQCPVCQQMMPAAHINSHLDRCLLLHPAGHAEPAAGSHRAGERAKGPSPPGAKRRRLSESSALKQPATPTAAESSEGEGEEGDDGGETESRESYDAPPTPSGARLIPDFPVARSSSPGRKGSGKRPAAAAAAGSASPRSWDEAEAQEEEEAVGDGDGDGDADADGEDDPGHWDADAAEAATAFGASGGGRPHPRALAAEEIRQMLQGKPLADTMRPDTLQDYFGQSKAVGQDTLLRSLLETNEIPSLILWGPPGCGKTTLAHIIASNSKKHSIRFVTLSATNAKTNDVRDVIKQAQNEKSFFKRKTILFIDEIHRFNKSQQDTFLPHVECGTITLIGATTENPSFQVNAALLSRCRVIVLEKLPVEAMVTILMRAINSLGIHVLDSSRPTDPLSHSSNSSSEPAMFIEDKAVDTLAYLSDGDARAGLNGLQLAVLARLSSRKMFCKKSGQSYSPSRVLITENDVKEGLQRSHILYDRAGEEHYNCISALHKSMRGSDQNASLYWLARMLEGGEDPLYVARRLVRFASEDIGLADPSALTQAVAAYQGCHFIGMPECEVLLAQCVVYFARAPKSIEVYSAYNNVKACLRNHQGPLPPVPLHLRNAPTRLMKDLGYGKGYKYNPMYSEPVDQEYLPEELRGVDFFKQRRC [WRNIP1] | 2.61 | 5.06 | -0.0694 | 47.5 °C | 49.3 °C | 0.228 |
| MADLSLLQEDLQEDADGFGVDDYSSESDVIIIPSALDFVSQDEMLTPLGRLDKYAASENIFNRQMVARSLLDTLREVCDDERDCIAVLERISRLADDSEPTVRAELMEQVPHIALFCQENRPSIPYAFSKFLLPIVVRYLADQNNQVRKTSQAALLALLEQELIERFDVETKVCPVLIELTAPDSNDDVKTEAVAIMCKMAPMVGKDITERLILPRFCEMCCDCRMFHVRKVCAANFGDICSVVGQQATEEMLLPRFFQLCSDNVWGVRKACAECFMAVSCATCQEIRRTKLSALFINLISDPSRWVRQAAFQSLGPFISTFANPSSSGQYFKEESKSSEEMSVENKNRTRDQEAPEDVQVRPEDTPSDLSVSNSSVILENTMEDHAAEASGKPLGEISVPLDSSLLCTLSSESHQEAASNENDKKPGNYKSMLRPEVGTTSQDSALLDQELYNSFHFWRTPLPEIDLDIELEQNSGGKPSPEGPEEESEGPVPSSPNITMATRKELEEMIENLEPHIDDPDVKAQVEVLSAALRASSLDAHEETISIEKRSDLQDELDINELPNCKINQEDSVPLISDAVENMDSTLHYIHSDSDLSNNSSFSPDEERRTKVQDVVPQALLDQYLSMTDPSRAQTVDTEIAKHCAYSLPGVALTLGRQNWHCLRETYETLASDMQWKVRRTLAFSIHELAVILGDQLTAADLVPIFNGFLKDLDEVRIGVLKHLHDFLKLLHIDKRREYLYQLQEFLVTDNSRNWRFRAELAEQLILLLELYSPRDVYDYLRPIALNLCADKVSSVRWISYKLVSEMVKKLHAATPPTFGVDLINELVENFGRCPKWSGRQAFVFVCQTVIEDDCLPMDQFAVHLMPHLLTLANDRVPNVRVLLAKTLRQTLLEKDYFLASASCHQEAVEQTIMALQMDRDSDVKYFASIHPASTKISEDAMSTASSTY [PPP4R1] | -0.471 | -0.62 | -0.155 | 51.6 °C | 50.8 °C | -0.0857 |
| MNHDFQALALESRGMGELLPTKKFWEPDDSTKDGQKGIFLGDDEWRETAWGASHHSMSQPIMVQRRSGQGFHGNSEVNAILSPRSESGGLGVSMVEYVLSSSPADKLDSRFRKGNFGTRDAETDGPEKGDQKGKASPFEEDQNRDLKQGDDDDSKINGRGLPNGMDADCKDFNRTPGSRQASPTEVVERLGPNTNPSEGLGPLPNPTANKPLVEEFSNPETQNLDAMEQVGLESLQFDYPGNQVPMDSSGATVGLFDYNSQQQLFQRTNALTVQQLTAAQQQQYALAAAQQPHIAGVFSAGLAPAAFVPNPYIISAAPPGTDPYTAAGLAAAATLAGPAVVPPQYYGVPWGVYPANLFQQQAAAAANNTASQQAASQAQPGQQQVLRAGAGQRPLTPNQGQQGQQAESLAAAAAANPTLAFGQGLATGMPGYQVLAPTAYYDQTGALVVGPGARTGLGAPVRLMAPTPVLISSAAAQAAAAAAAGGTASSLTGSTNGLFRPIGTQPPQQQQQQPSTNLQSNSFYGSSSLTNSSQSSSLFSHGPGQPGSTSLGFGSGNSLGAAIGSALSGFGSSVGSSASSSATRRESLSTSSDLYKRSSSSLAPIGQPFYNSLGFSSSPSPIGMPLPSQTPGHSLTPPPSLSSHGSSSSLHLGGLTNGSGRYISAAPGAEAKYRSASSTSSLFSSSSQLFPPSRLRYNRSDIMPSGRSRLLEDFRNNRFPNLQLRDLIGHIVEFSQDQHGSRFIQQKLERATPAERQMVFNEILQAAYQLMTDVFGNYVIQKFFEFGSLDQKLALATRIRGHVLPLALQMYGCRVIQKALESISSDQQVISEMVKELDGHVLKCVKDQNGNHVVQKCIECVQPQSLQFIIDAFKGQVFVLSTHPYGCRVIQRILEHCTAEQTLPILEELHQHTEQLVQDQYGNYVIQHVLEHGRPEDKSKIVSEIRGKVLALSQHKFASNVVEKCVTHASRAERALLIDEVCCQNDGPHSALYTMMKDQYANYVVQKMIDMAEPAQRKIIMHKIRPHITTLRKYTYGKHILAKLEKYYLKNSPDLGPIGGPPNGML [PUM2] | 1.8 | 1.49 | -0.11 | 54 °C | 50.2 °C | 0.446 |
| MNKLRQSFRRKKDVYVPEASRPHQWQTDEEGVRTGKCSFPVKYLGHVEVDESRGMHICEDAVKRLKAERKFFKGFFGKTGKKAVKAVLWVSADGLRVVDEKTKDLIVDQTIEKVSFCAPDRNFDRAFSYICRDGTTRRWICHCFMAVKDTGERLSHAVGCAFAACLERKQKREKECGVTATFDASRTTFTREGSFRVTTATEQAEREEIMKQMQDAKKAETDKIVVGSSVAPGNTAPSPSSPTSPTSDATTSLEMNNPHAIPRRHAPIEQLARQGSFRGFPALSQKMSPFKRQLSLRINELPSTMQRKTDFPIKNAVPEVEGEAESISSLCSQITNAFSTPEDPFSSAPMTKPVTVVAPQSPTFQANGTDSAFHVLAKPAHTALAPVAMPVRETNPWAHAPDAANKEIAATCSGTEWGQSSGAASPGLFQAGHRRTPSEADRWLEEVSKSVRAQQPQASAAPLQPVLQPPPPTAISQPASPFQGNAFLTSQPVPVGVVPALQPAFVPAQSYPVANGMPYPAPNVPVVGITPSQMVANVFGTAGHPQAAHPHQSPSLVRQQTFPHYEASSATTSPFFKPPAQHLNGSAAFNGVDDGRLASADRHTEVPTGTCPVDPFEAQWAALENKSKQRTNPSPTNPFSSDLQKTFEIEL [NUMB] | 0.0697 | 0.793 | -0.132 | 51.9 °C | 51.4 °C | -0.0586 |
| MSDLQAAEGPGSWSPTARPGSAGGVGDCQGVEGSQAAASENEDLENKDTSLLASATDPEPCSSPHRPQMVSPVSKDATEDLRKATGPLEAQALVKQDLLPADQAQVLNEMAKYQVPQRSGDIVMIQSEHTGAIDVLSADLESADLLGDHRKVSPPLMAPPCIWTFAKVKEFKSKLGKEKNSRLVVKRGEVVTIRVPTHPEGKRVCWEFATDDYDIGFGVYFDWTPVTSTDITVQVSDSSDDEDEEEEEEEEIEEPVPAGDVERGSRSSLRGRYGEVMPVYRRDSHRDVQAGSHDYPGEGIYLLKFDNSYSLLRNKTLYFHIYYTS [TMED8] | -0.422 | -0.616 | -0.104 | 50.4 °C | 50.3 °C | 0.328 |
| MADAEVIILPKKHKKKKERKSLPEEDVAEIQHAEEFLIKPESKVAKLDTSQWPLLLKNFDKLNVRTTHYTPLACGSNPLKREIGDYIRTGFINLDKPSNPSSHEVVAWIRRILRVEKTGHSGTLDPKVTGCLIVCIERATRLVKSQQSAGKEYVGIVRLHNAIEGGTQLSRALETLTGALFQRPPLIAAVKRQLRVRTIYESKMIEYDPERRLGIFWVSCEAGTYIRTLCVHLGLLLGVGGQMQELRRVRSGVMSEKDHMVTMHDVLDAQWLYDNHKDESYLRRVVYPLEKLLTSHKRLVMKDSAVNAICYGAKIMLPGVLRYEDGIEVNQEIVVITTKGEAICMAIALMTTAVISTCDHGIVAKIKRVIMERDTYPRKWGLGPKASQKKLMIKQGLLDKHGKPTDSTPATWKQEYVDYSESAKKEVVAEVVKAPQVVAEAAKTAKRKRESESESDETPPAAPQLIKKEKKKSKKDKKAKAGLESGAEPGDGDSDTTKKKKKKKKAKEVELVSE [DKC1] | -3.35 | -5.27 | 0.816 | 55.6 °C | 53.2 °C | -1.41 |
